From doi:10.1101/2023.05.17.541065

T1: EIL1-GST (tomato, UniProt Q94FV4 1-610)
T1 sequence: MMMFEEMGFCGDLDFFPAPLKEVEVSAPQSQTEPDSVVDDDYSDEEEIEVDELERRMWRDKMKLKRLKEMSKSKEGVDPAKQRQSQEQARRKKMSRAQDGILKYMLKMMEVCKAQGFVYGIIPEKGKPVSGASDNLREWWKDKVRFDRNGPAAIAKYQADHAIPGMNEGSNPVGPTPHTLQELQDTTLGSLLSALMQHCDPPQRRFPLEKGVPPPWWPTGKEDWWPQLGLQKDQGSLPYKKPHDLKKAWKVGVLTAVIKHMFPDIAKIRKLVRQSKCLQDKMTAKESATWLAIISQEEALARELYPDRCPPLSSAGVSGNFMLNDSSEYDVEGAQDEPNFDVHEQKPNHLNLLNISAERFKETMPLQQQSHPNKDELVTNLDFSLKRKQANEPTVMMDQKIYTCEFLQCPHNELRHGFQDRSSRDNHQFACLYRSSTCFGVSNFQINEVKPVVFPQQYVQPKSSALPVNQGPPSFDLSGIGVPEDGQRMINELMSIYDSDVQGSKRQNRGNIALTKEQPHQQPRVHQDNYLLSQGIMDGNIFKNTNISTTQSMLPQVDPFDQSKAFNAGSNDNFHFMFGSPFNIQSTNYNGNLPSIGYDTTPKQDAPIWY

B1: CYP94C1 promoter EBS probe (dsDNA)
DNA 1: TGTGTCTTTTTTCAATAAAGGTGATGTATCGGGACAAGATGCATCGGACGCTG
DNA 2: CAGCGTCCGATGCATCTTGTCCCGATACATCACCTTTATTGAAAAAAGACACA
B2: CYP94B promoter G-box probe (dsDNA)
DNA 1: TTTACGCGCACAAGAAACACGTGATTTAAATGCATAATTA
DNA 2: TAATTATGCATTTAAATCACGTGTTTCTTGTGCGCGTAAA

Key:
EIL1-GST = biological target: T1, EIL1-GST; assay: EMSA
MYC2-TF = MYC2-TF (tomato, UniProt A0A3Q7HRZ6 1-689); assay: EMSA
Sequence of MYC2-TF (A0A3Q7HRZ6 whole entry): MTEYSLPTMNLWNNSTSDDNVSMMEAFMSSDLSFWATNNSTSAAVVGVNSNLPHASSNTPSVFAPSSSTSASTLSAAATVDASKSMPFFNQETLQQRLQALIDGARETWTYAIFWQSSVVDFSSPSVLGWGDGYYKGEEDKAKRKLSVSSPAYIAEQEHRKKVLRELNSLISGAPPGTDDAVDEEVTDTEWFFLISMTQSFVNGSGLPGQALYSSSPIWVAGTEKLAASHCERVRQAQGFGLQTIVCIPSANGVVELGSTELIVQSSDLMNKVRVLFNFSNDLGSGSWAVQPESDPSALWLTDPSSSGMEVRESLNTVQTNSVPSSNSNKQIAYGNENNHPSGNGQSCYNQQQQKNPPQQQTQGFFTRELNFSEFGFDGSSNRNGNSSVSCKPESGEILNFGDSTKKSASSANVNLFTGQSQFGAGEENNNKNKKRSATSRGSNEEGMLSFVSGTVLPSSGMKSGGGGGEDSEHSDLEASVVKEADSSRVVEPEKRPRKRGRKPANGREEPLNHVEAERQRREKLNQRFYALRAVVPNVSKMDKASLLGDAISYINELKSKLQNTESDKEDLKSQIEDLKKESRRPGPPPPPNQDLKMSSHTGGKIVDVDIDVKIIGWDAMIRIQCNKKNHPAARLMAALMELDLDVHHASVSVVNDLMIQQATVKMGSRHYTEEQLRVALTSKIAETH

Binder | binding result (EIL1-GST) | binding result (MYC2-TF)
B1 | binds | 
B2 |  | binds
